In the RNAGym collection of RNA variant scans (doi:10.1093/nar/gkz1192):

B1: CPEB3 Ribozyme (parent)
chain: UAACAGGGGGCCACAGCAGAAGCGUUCACGUCGCAGCCCCUGUCAGAUUCUGGUGAAUCUGCGAAUUCUGCUGUAUAUCUC

Variants of: B1
Assay: self-cleavage, relative activity (ratio to wild type); higher = more cleavage; in vitro, sequencing
Summary of the method: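 Barcoded CPEB3 ribozyme mutants, produced by rounds of error-prone PCR, self-cleaved while being transcribed with T7 RNA polymerase for 5 hours at 37°C and during a subsequent 15 min DNase I step before EDTA was added. Sequencing of template-switched cDNA on Illumina gave cleaved and total reads, and DNA sequencing assigned barcodes to variants. Each variant's relative activity is its cleaved/total read fraction divided by the unmutated ribozyme's fraction, averaged across three batches. A variant needed a minimum of 5 reads.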
For UAACAGGGGGCCACAGCAGAAGCGUUCACGUCGCAGCCCCUGUCGGAUUCUGGUGAAUUUGCGAAUUCUGCUGUAUAUCUC [A45G C59U], the self-cleavage was 0.62. UAACAGGGGGCCACAGCAGAAGCGUUCACGUCGCAGCCCCUGUCGGAUUCUGGUGAAUAUGCGAAUUCUGCUGUAUAUCUC [A45G C59A] gave a self-cleavage of 0.63. UAACAGGGGGCCACAGCAGAAGCGUUCACGUCGCAGCCCCUGUCGGAUUCUGGUGAAUGUGCGAAUUCUGCUGUAUAUCUC [A45G C59G] showed a self-cleavage of 0.2. In the case of UAACAGGGGGCCACAGCAGAAGCGUUCACGUCGCAGCCCCUGUCGUAUUCUGGUGAAUCUGCGAAUUCUGCUGUAUAUCUC [A45G G46U], the self-cleavage is reported as 0.21. UAACAGGGGGCCACAGCAGAAGCGUUCACGUCGCAGCCCCUGUCGAAUUCUGGUGAAUCUGCGAAUUCUGCUGUAUAUCUC [A45G G46A] gave a self-cleavage of 0.29. In the case of UAACAGGGGGCCACAGCAGAAGCGUUCACGUCGCAGCCCCUGUCGGAUUCUGGUGAAUCUGCGAAUUCUGCUGUAUAUGUC [A45G C79G], the self-cleavage is reported as 1.12. With UAACAGGGGGCCACAGCAGAAGCGUUCACGUCGCAGCCCCUGUCGGAUUCUGGUGAAUCUGCGAAUUCUGCUGUAUAUAUC [A45G C79A] the self-cleavage was 1.13. For UAACAGGGGGCCACAGCAGAAGCGUUCACGUCGCAGCCCCUGUCGGAUUCUGGUGAAUCUGCGAAUUAUGCUGUAUAUCUC [A45G C68A], the self-cleavage was 0.18. Work on UAACAGGGGGCCACAGCAGAAGCGUUCACGUCGCAGCCCCUGUCGGAUUCUGGUGAAUCUGCGAAUUUUGCUGUAUAUCUC [A45G C68U] yielded a self-cleavage of 0.88. Work on UAACAGGGGGCCACAGCAGAAGCGUUCACGUCGCAGCCCCUGUCGGAUUCUGGUGAAUCUGCGAAUUCUGCUGUAUAUCUU [A45G C81U] yielded a self-cleavage of 1.07. UAACAGGGGGCCACAGCAGAAGCGUUCACGUCGCAGCCCCUGUCGGAUUCUGGUGAAUCUGCGAAUUCUGCUGUAUAUCUA [A45G C81A] gave a self-cleavage of 1.02. Work on UAACAGGGGGCCACAGCAGAAGCGUUCACGUCGCAGCCCCUGUCGGAUUCUGGUGAAUCUGCGUAUUCUGCUGUAUAUCUC [A45G A64U] yielded a self-cleavage of 0.3. Work on UAACAGGGGGCCACAGCAGAAGCGUUCACGUCGCAGCCCCUGUCGGAUUCUGGUGAAUCUGCGAAUUCUGUUGUAUAUCUC [A45G C71U] yielded a self-cleavage of 0.65. In the case of UAACAGGGGGCCACAGCAGAAGCGUUCACGUCGCAGCCCCUGUCGGAUUCUGGUGAAUCUGCGAAUUCUGGUGUAUAUCUC [A45G C71G], the self-cleavage is reported as 0.3. For UAACAGGGGGCCACAGCAGAAGCGUUCACGUCGCAGCCCCUGUCGGAUUGUGGUGAAUCUGCGAAUUCUGCUGUAUAUCUC [A45G C50G], the self-cleavage was 0.28. Work on UAACAGGGGGCCACAGCAGAAGCGUUCACGUCGCAGCCCCUGUCGGAUUUUGGUGAAUCUGCGAAUUCUGCUGUAUAUCUC [A45G C50U] yielded a self-cleavage of 0.74. UAACAGGGGGCCACAGCAGAAGCGUUCACGUCGCAGCCCCUGUCGGAUUCUGGUGAAUCUGCGACUUCUGCUGUAUAUCUC [A45G A65C] showed a self-cleavage of 0.24. UAACAGGGGGCCACAGCAGAAGCGUUCACGUCGCAGCCCCUGUCGGAUUCUGGUGAAUCUGCGAGUUCUGCUGUAUAUCUC [A45G A65G] showed a self-cleavage of 0.35. For UAACAGGGGGCCACAGCAGAAGCGUUCACGUCGCAGCCCCUGUCGGAUUCUGGUGAAUCUGCGAUUUCUGCUGUAUAUCUC [A45G A65U], the self-cleavage was 0.27. In the case of UAACAGGGGGCCACAGCAGAAGCGUUCACGUCGCAGCCCCUGUCGGAUUCUGGUGAAUCUGUGAAUUCUGCUGUAUAUCUC [A45G C62U], the self-cleavage is reported as 0.22. Variant UAACAGGGGGCCACAGCAGAAGCGUUCACGUCGCAGCCCCUGUCGGAUUCUGGUGAAUCUGAGAAUUCUGCUGUAUAUCUC [A45G C62A] has a self-cleavage of 0.45. Work on UAACAGGGGGCCACAGCAGAAGCGUUCACGUCGCAGCCCCUGUCGGAUUCUGGUGAAUCUGGGAAUUCUGCUGUAUAUCUC [A45G C62G] yielded a self-cleavage of 0.25. Work on UAACAGGGGGCCACAGCAGAAGCGUUCACGUCGCAGCCCCUGUCGGAUUCUGGUAAAUCUGCGAAUUCUGCUGUAUAUCUC [A45G G55A] yielded a self-cleavage of 0.43. Variant UAACAGGGGGCCACAGCAGAAGCGUUCACGUCGCAGCCCCUGUCGGAUUCUGGUCAAUCUGCGAAUUCUGCUGUAUAUCUC [A45G G55C] has a self-cleavage of 0.67. For UAACAGGGGGCCACAGCAGAAGCGUUCACGUCGCAGCCCCUGUCGGAUUCUGGUUAAUCUGCGAAUUCUGCUGUAUAUCUC [A45G G55U], the self-cleavage was 0.4. UAACAGGGGGCCACAGCAGAAGCGUUCACGUCGCAGCCCCUGUCGGAUUCUGGUGAAUCUGCGAAUUCUGCUGUAUCUCUC [A45G A77C] showed a self-cleavage of 0.48. Variant UAACAGGGGGCCACAGCAGAAGCGUUCACGUCGCAGCCCCUGUCGGAUUCUGGUGAAUCUGCGAAUUCUGCUGUAUGUCUC [A45G A77G] has a self-cleavage of 0.87. UAACAGGGGGCCACAGCAGAAGCGUUCACGUCGCAGCCCCUGUCGGAUUCUGGUGAAUCUGCGAAUUCUGCUGUAUUUCUC [A45G A77U] gave a self-cleavage of 0.9. Variant UAACAGGGGGCCACAGCAGAAGCGUUCACGUCGCAGCCCCUGUCGGAUUCUUGUGAAUCUGCGAAUUCUGCUGUAUAUCUC [A45G G52U] has a self-cleavage of 0.94. With UAACAGGGGGCCACAGCAGAAGCGUUCACGUCGCAGCCCCUGUCGGAUUCUCGUGAAUCUGCGAAUUCUGCUGUAUAUCUC [A45G G52C] the self-cleavage was 0.91. Work on UAACAGGGGGCCACAGCAGAAGCGUUCACGUCGCAGCCCCUGUCGGAUUCUAGUGAAUCUGCGAAUUCUGCUGUAUAUCUC [A45G G52A] yielded a self-cleavage of 0.94. UAACAGGGGGCCACAGCAGAAGCGUUCACGUCGCAGCCCCUGUCGGAUUCUGGUGAAUCUGCGAAUUCUGCUGUCUAUCUC [A45G A75C] gave a self-cleavage of 1.01. UAACAGGGGGCCACAGCAGAAGCGUUCACGUCGCAGCCCCUGUCGGAUUCUGGUGAAUCUGCGAAUUCUGCUGUGUAUCUC [A45G A75G] gave a self-cleavage of 0.77. Work on UAACAGGGGGCCACAGCAGAAGCGUUCACGUCGCAGCCCCUGUCGGAUUCUGGUGAAUCUGCGAAUUCUGCUGUUUAUCUC [A45G A75U] yielded a self-cleavage of 0.91.
